From patent US20040042961

What was measured:
[1] = tested on: GFP double loop insertion mutant at positions 157-158 and 174-175 with GGGG-LETD-GGGGG (caspase 8 sites)
[2] = tested on: GFP single insertion mutant K157-Q158 (GGGGFFRSGGGG inserted)
[3] = tested on: GFP double insertion mutant K157-Q158 and D174-G175 (cathepsin L sites)
[4] = tested on: GFP single insertion mutant D174-G175 (GGGGFFRSGGGG inserted)
[5] = tested on: recombinant GFP-His protein (wild type GFP)
[6] = tested on: GFP single insertion mutant T39-Y40 (GGGGFFRSGGGG inserted)
[7] = tested on: GFP single insertion mutant K102-D103 (GGGGFFRSGGGG inserted)
[8] = tested on: GFP single insertion mutant G117-D118 (GGGGFFRSGGGG inserted)
[9] = tested on: substitution mutants (GFP sequence substituted with FRS at various positions; fifteen fluorescent of twenty)

cathepsin L, sequence (chain, as listed by the source): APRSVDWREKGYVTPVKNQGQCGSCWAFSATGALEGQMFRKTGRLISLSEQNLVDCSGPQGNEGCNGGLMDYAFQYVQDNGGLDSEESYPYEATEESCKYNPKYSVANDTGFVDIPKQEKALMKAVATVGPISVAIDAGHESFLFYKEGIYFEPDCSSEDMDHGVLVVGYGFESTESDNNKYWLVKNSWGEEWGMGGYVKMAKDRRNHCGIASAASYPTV

Substance	Cleavage at sequence introduced [1]	Cleavage at sequence introduced [2]	Cleavage at sequence introduced [3]	Cleavage at sequence introduced [4]	GFP fluorescence and SDS-PAGE band on incubation with 400 nM cathepsin L at pH 5.5 and 4.8 [5]	Cleavage at sequence introduced [6]	Cleavage at sequence introduced [7]	Cleavage at sequence introduced [8]	specific cleavage (SDS-PAGE) [9]
caspase 8	(yes)								
cathepsin L		Yes	(yes)	Yes	A time-dependent decrease in GFP fluorescence was observed (FIG. 10A), with concommitant disappearance of the GFP band on SDS-PAGE	Yes	Yes	No	fifteen mutants were fluorescent and therefore properly folded, but only one of them was specifically cleaved by cathepsin L
